We go through 21 molecules from patent publication US20130123347, “FRACTALKINE BINDING POLYNUCLEOTIDES AND METHODS OF USE” (published 2013).

As usually defined, the IC50 is the concentration that inhibits the measured activity by half. What is called Kd is the free concentration of one partner at which half of the binding sites on the other are occupied at equilibrium, for simple one-to-one binding.

T1: CXCL16 (UniProt Q9H2A7 Q9H2A7:30-118)
T1 sequence: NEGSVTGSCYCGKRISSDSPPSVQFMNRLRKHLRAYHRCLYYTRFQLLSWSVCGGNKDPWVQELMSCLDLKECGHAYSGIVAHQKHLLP

B1: 5',3' 10T FKN-S2 Aptamer (ssDNA)
DNA: TTTTTTTTTTGGGGTGGGTGGGGGGCACGTGTGGGGGCGGCCAGGGTGCTTTTTTTTTTT

T2 sequence (P78423 25-339, one chain of several): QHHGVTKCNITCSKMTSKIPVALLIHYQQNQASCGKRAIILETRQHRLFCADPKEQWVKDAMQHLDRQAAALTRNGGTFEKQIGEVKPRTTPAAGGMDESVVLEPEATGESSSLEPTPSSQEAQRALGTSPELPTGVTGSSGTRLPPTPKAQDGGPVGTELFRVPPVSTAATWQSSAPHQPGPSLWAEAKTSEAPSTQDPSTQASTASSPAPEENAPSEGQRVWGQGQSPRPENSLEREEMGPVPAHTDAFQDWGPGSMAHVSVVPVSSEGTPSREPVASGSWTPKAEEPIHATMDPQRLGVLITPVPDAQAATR
CCL8, sequence (P80075 24-99, one chain of several): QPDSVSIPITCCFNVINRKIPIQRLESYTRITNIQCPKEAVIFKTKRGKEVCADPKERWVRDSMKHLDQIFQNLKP

One data set concerns the target T2, fractalkine (CX3CL1) (Homo sapiens, UniProt P78423 P78423:25-339). Nature of the data set: competition; vs radiolabeled FKN-S2, 0.1 nM FKN, PBS. The note with it: tags: C-terminal polyhistidine; chemokine domain + mucin-like stalk; R&D Systems 365-FR-025. As to the method:
(§1) IC₅₀ Binding Assay. FKN-S2 aptamer was labeled on the 5′ end with a radioactive phosphorous (³²P) using a T4 kinase. Unlabeled aptamer amphiphile was serially diluted in binding buffer composed of PBS with BSA, Poly(dA:dT) and radio-labeled FKN-S2 (generally less than 0.05 nM; ≈20,000 count per minute per well) and unlabeled FKN-S2 (1 nM). This ensured each aptamer dilution contained an identical concentration of FKN-S2. Fractalkine (0.1 nM) or BSA was added to each dilution and the aptamer was allowed to bind for 1 hour at room temperature. Each solution was then filtered though a nitrocellulose membrane where the fractalkine:aptamer complex was captured and non-bound aptamer was removed by washing the membrane three times with PBS. The membrane was then exposed to a phosphor film overnight and imaged. The binding was quantified using imageJ and the data fit to a binding equation to determine the IC₅₀.
Effect of the Spacer on Binding Affinity. […] Radiolabeled FKN-S2 aptamer and unlabeled aptamer-amphiphile were incubated with fractalkine for 1 hour and the aptamer:fractalkine complex collected by filtration through a nitrocellulose membrane. The concentration at which 50% of the aptamer is displaced by the unlabeled competitor is the IC₅₀ value.
For GGGGTGGGTGGGGGGCACGTGTGGGGGCGGCCAGGGTGCTTTTTT (ssDNA, 3' C16 dialkyl tail) [3' 5T FKN-S2 Amphiphile], the IC50 worked out at 37.6 nM. Same read-out and setting: to GGGGTGGGTGGGGGGCACGTGTGGGGGCGGCCAGGGTGCTTTTTTTTTTT (ssDNA, 3' C16 dialkyl tail) [3' 10T FKN-S2 Amphiphile] belongs 21.8 nM; to GGGGTGGGTGGGGGGCACGTGTGGGGGCGGCCAGGGTGCT (ssDNA, 3' C24 spacer + C16 dialkyl tail) [3' C24 FKN-S2 Amphiphile], 73.5 nM. Still for that read-out and setting: to GGGGTGGGTGGGGGGCACGTGTGGGGGCGGCCAGGGTGCT (ssDNA, 3' PEG8 spacer + C16 dialkyl tail) [3' PEG8 FKN-S2 Amphiphile] belongs 47.5 nM. For GGGGTGGGTGGGGGGCACGTGTGGGGGCGGCCAGGGTGCT (ssDNA, 5' C6 amino-linked C16 dialkyl tail) [5' No Spacer FKN-S2 Amphiphile], the IC50 came to 81.6 nM. Still for that read-out and setting: to GGGGTGGGTGGGGGGCACGTGTGGGGGCGGCCAGGGTGCT (ssDNA, 3' C12 spacer + C16 dialkyl tail) [3' C12 FKN-S2 Amphiphile] belongs 75.6 nM.

On to GGGGTGGGTGGGGGGCACGTGTGGGGGCGGCCAGGGTGCT (ssDNA, 3' PEG24 spacer + C16 dialkyl tail) [3' PEG24 FKN-S2 Amphiphile], for which the IC50 is 49.6 nM. Same read-out and setting: for GGGGTGGGTGGGGGGCACGTGTGGGGGCGGCCAGGGTGCT (ssDNA, 3' PEG4 spacer + C16 dialkyl tail) [3' PEG4 FKN-S2 Amphiphile] the value was 68.6 nM; for GGGGTGGGTGGGGGGCACGTGTGGGGGCGGCCAGGGTGCT (ssDNA, 3' C6 amino-linked C16 dialkyl tail) [3' No Spacer FKN-S2 Amphiphile], 65.7 nM; for TTTTTTTTTTGGGGTGGGTGGGGGGCACGTGTGGGGGCGGCCAGGGTGCT (ssDNA, 5' C16 dialkyl tail) [5' 10T FKN-S2 Amphiphile], 55.1 nM. Still for that read-out and setting: to GGGGTGGGTGGGGGGCACGTGTGGGGGCGGCCAGGGTGCTAAAAAAAAAA (ssDNA, 3' C16 dialkyl tail) [3' 10A FKN-S2 Amphiphile] belongs 24.8 nM.

The next data set deals with T2, fractalkine (CX3CL1). Nature of the data set: competition; vs radiolabeled FKN-S2, filter binding, PBS pH 7.4; Table 2 gives 8.6±0.3 nM (n=9). The note with it: tags: C-terminal polyhistidine; chemokine domain + mucin-like stalk; R&D Systems 365-FR-025; label: 5' 32P; parallel G-quartet and B-form features by CD.
With GGGGTGGGTGGGGGGCACGTGTGGGGGCGGCCAGGGTGCT (ssDNA) [FKN-S2], the IC50 came to 9.5 nM.

For another data set, the target named is T2, fractalkine (CX3CL1). Nature of the data set: filter; homologous competition; 25 pM FKN, PBS pH 7.4, poly dA:dT, BSA, room temp. The note with it: tags: C-terminal polyhistidine; chemokine domain + mucin-like stalk; R&D Systems 365-FR-025; label: 5' 32P; parallel G-quartet and B-form features by CD. The procedure: The dissociation constant of FKN-S2 for fractalkine was determined using a radioactive homologous competition filter binding assay. Dilutions of unlabeled FKN-S2 aptamer were mixed with a constant concentration of ³²P ATP labeled FKN-S2. The dilutions were then incubated with 25 pM fractalkine for 1 hour at room temperature. […] Bound aptamer was collected by filtration through a nitrocellulose membrane and the dissociation constant determined by non-linear regression analysis.
All binding experiments occurred in binding buffer composed of PBS with 0.5 μg/mL poly dA:dT and 50 μg/mL bovine serum albumin (BSA), pH 7.4. Unlabeled full length FKN-S2 aptamer was diluted in binding buffer and a constant concentration of radiolabeled full length FKN-S2 aptamer added to each dilution. Full length fractalkine or an equivalent concentration of BSA was diluted in binding buffer to 50 pM. Aptamer and fractalkine/BSA was incubated for 1 hour at room temperature. Following incubation, samples were filtered through a nitrocellulose membrane using a bio-rad dot blot apparatus. Each well was washed 3 times with 200 μL of PBS to remove unbound aptamer. The membrane was dried and exposed to a storage phosphor screen overnight and imaged (Packard Cyclone). Binding was quantified using ImageJ and the Dot Blot Analyzer plug-in. The data was fit to the following equation
GGGGTGGGTGGGGGGCACGTGTGGGGGCGGCCAGGGTGCT (ssDNA) [FKN-S2]: the Kd was 3.4 nM.

The target of another data set is T2, fractalkine (CX3CL1). Nature of the data set: competition; vs radiolabeled FKN-S2. The conditions noted are these: tags: C-terminal polyhistidine; chemokine domain + mucin-like stalk; R&D Systems 365-FR-025. The procedure: as §1
We hypothesized that the improvement in affinity of the 3′ 10T FKN-S2 amphiphile may be due either to a spacer effect, where the spacer increases the distance between the aptamer and the tail, or due to an improvement in the affinity of the aptamer itself. To investigate the effect of the 10T spacer on the aptamer affinity, we measured the IC₅₀ values of the FKN-S2 aptamer with different nucleotide spacers (Table 3).
With GGGGTGGGTGGGGGGCACGTGTGGGGGCGGCCAGGGTGCTTTTTT (ssDNA) [3' 5T FKN-S2 Aptamer], the IC50 came out at 3.4 nM. Same read-out and setting: to GGGGTGGGTGGGGGGCACGTGTGGGGGCGGCCAGGGTGCTTTTTTTTTTT (ssDNA) [3' 10T FKN-S2 Aptamer] belongs 3.6 nM.

As for TTTTTTTTTTGGGGTGGGTGGGGGGCACGTGTGGGGGCGGCCAGGGTGCT (ssDNA) [5' 10T FKN-S2 Aptamer], the IC50 amounted to 8.7 nM. On the same count and under the same terms, to B1 belongs 2.7 nM; to GGGGTGGGTGGGGGGCACGTGTGGGGGCGGCCAGGGTGCTT (ssDNA) [3' 1T FKN-S2 Aptamer], 9.2 nM.

The target of another data set is T2, fractalkine (CX3CL1). Nature of the data set: filter; 1-10 nM aptamer; PBS pH 7.4, BSA, poly dA:dT. The conditions noted are these: tags: C-terminal polyhistidine; chemokine domain + mucin-like stalk; R&D Systems 365-FR-025; label: 32P. As to the method: Anti-fractalkine Antibody Blocking Assay. Unlabeled FKN-S2 and scrambled FKN-S2 aptamer (sequence 5′-[…] […], SEQ ID NO:7) were diluted to 10 nM in binding buffer (PBS with 50 μg/mL BSA and 2.5 μg/mL Poly (dA:dT); pH 7.4). Approximately 75,000 cpm/well of radio-labeled aptamer was added and the samples were diluted to 5 and 1 nM. Each dilution was heat denatured and snap cooled. Full length fractalkine was diluted to 0.25 nM and approximately 100 nM of anti-chemokine domain antibody (FKN Ab) was added and allowed to bind for 30 minutes at room temperature. The aptamer was added to the protein solution and incubated at room temperature for 30 minutes. Bound aptamer was collected by filtering the samples thorough at nitrocellulose membrane and signal captured with a phosphor film and imaged. The background binding signal was removed from the FKN and FKN Ab+FKN samples by subtracting the signal from a well containing an identical concentration of BSA without FKN or FKN Ab. Binding was quantified using ImageJ.
With GTTGGGATGAGGGTGGGCGGGCGCGGCGGCTGGGGGTCGG (ssDNA) [scrambled FKN-S2], the binding result is reported as “no binding”.

The target in the next data set is T1, CXCL16. Nature of the data set: filter; 0.2 nM protein; PBS pH 7.4, room temp. The note with it: tags: PeproTech 300-55; label: 5' 32P; parallel G-quartet and B-form features by CD. The procedure:
(§2) FKN-S2 was labeled with γ-³²P ATP using a T4 polynucleotide kinase as described in the FKN-S2 Aptamer Homologous Competitive Binding Assay section. Unlabeled FKN-S2 aptamer and 10⁶ counts per minute of radiolabeled FKN-S2 aptamer were mixed in binding buffer (PBS with 50 μg/mL BSA and 2.5 μg/mL Poly (dA:dT); pH 7.4) and the aptamer was denatured at 95° C. for 5 minutes followed by snap cooling in ice water for 5 minutes. The aptamer was then serial diluted in binding buffer and the dilutions added to full length fractalkine, heat-denatured fractalkine and chemokines CCL8 (PeproTech Catalog Number 300-15) and CXCL16 (PeproTech Catalog Number 300-55). All proteins were at a concentration of 0.2 nM. Fractalkine was denatured by heating to 95° C. for 10 minutes followed by incubation on ice until use. The aptamer and protein were incubated for 1 hour at room temperature. Bound aptamer was collected by filtering the samples thorough at nitrocellulose membrane and signal captured with a phosphor film and imaged. The background was measured from wells containing an identical concentration of BSA without the protein. Binding was quantified using ImageJ. […] The binding that was seen may be due to incomplete denaturing or refolding of fractalkine during the experiment.
For the molecule GGGGTGGGTGGGGGGCACGTGTGGGGGCGGCCAGGGTGCT (ssDNA) [FKN-S2], the binding result is “no binding”.

In a further data set the target is CCL8 (UniProt P80075 P80075:24-99). Nature of the data set: filter; 0.2 nM protein; PBS pH 7.4, room temp. The note with it: tags: PeproTech 300-15; label: 5' 32P; parallel G-quartet and B-form features by CD. As to the method:
as §2
Turning to GGGGTGGGTGGGGGGCACGTGTGGGGGCGGCCAGGGTGCT (ssDNA) [FKN-S2], the binding result is on record as “no binding”.

The next data set has as its target T2, fractalkine (CX3CL1). Nature of the data set: competition; vs radiolabeled FKN-S2. The conditions noted are these: tags: C-terminal polyhistidine; chemokine domain + mucin-like stalk; R&D Systems 365-FR-025. This is another data set of the same source. The procedure:
FKN-S2 contains 40 nucleotides and we investigated if truncation of the aptamer would result in sequences with similar affinity to fractalkine but with fewer nucleotides. Three truncated versions of the FKN-S2 aptamer were synthesized with five nucleotides removed from the 5′ end (FKN-S2a), five from the 3′ end (FKN-S2b) and five from each end (FKN-S2c). Additionally, a random 40-mer (5′-[…] (SEQ ID NO:4)) was used as a control. The relative affinities of the truncated aptamers were tested using a heterogeneous competition assay with radiolabeled full length FKN-S2 (FIG. 4). IC₅₀ values (the concentration of 50% reduction in binding) were determined by non-linear regression fitting of the data to the binding equation given in herein and the values are shown in Table 1.
Truncated FKN-S2 Aptamer Competitive Binding Assay. […] 1 nM of unlabeled FKN-S2 and 5,000 cpm/μL (counts per minute/μL) of radio-labeled full length FKN-S2 were heat denatured and snap cooled before addition to either fractalkine or a BSA control at a concentration of 0.1 nM and incubated for 1 hour at room temperature. The solutions were filtered through a nitrocellulose membrane and exposed to a storage phosphor film overnight and imaged. The binding was quantified using ImageJ and the Dot Blot Analyzer plug-in. Data was fit using the non-linear regression program Origin 8 to the equation
For the molecule GGGGTGGGTGGGGGGCACGTGTGGGGGCGGCCAGG (ssDNA) [FKN-S2b], the IC50 turned out to be 5410 nM. As for GGGTGGGGGGCACGTGTGGGGGCGGCCAGG (ssDNA) [FKN-S2c], the IC50 was more than 100000 nM.

Take CTATCGGCGACATGAACTTTGGCAAGGGCATCTGGTCCAT (ssDNA) [random 40-mer]: the IC50 is more than 100000 nM.
